B1: NKCC2: N442Q/N452Q (protein)
parent chain: MSVSIPSNSVPSSASRFQVHVINEGHGSAAAVGDSADPPHYEETSFGDEAQNRLRISFRPGNQECYDNFLQTGETAKTDTTFHAYDSHTNTYYLQTFGHNTMDAVPKIEYYRNTGSVSGPKVNRPSLLEIHEQLAKNVTVAPGSADRVANGDGMPGDEQAENKEEDMTGVVKFGWVKGVLVRCMLNIWGVMLFIRLSWIVGEAGIGLGVLIILLSTMVTSITGLSTSAIATNGFVRGGGAYYLISRSLGPEFGGSIGLIFAFANAVAVAMYVVGFAETVVDLLKESDSMMVDPTNDIRIIGSITVVILLGISVAGMEWEAKAQVILLVILLIAIANFFIGTVIPSNNEKKSRGFFNYQASIFAENFGPSFTKGEGFFSVFAIFFPAATGILAGANISGDLEDPQDAIPRGTMLAIFITTVAYIGVAICVAACVVRDATGSMNDTIVSGMNCNGSAACGLGYDFSRCQHEPCQYGLMNNFQVMSMVSGFGPLITAGIFSATLSSALASLVSAPKVFQALCKDNIFKGLQFFAKGYGKNNEPLRGYFLTFVIAMAFILIAELNVIAPIISNFFLASYALINFSCFHASYAKSPGWRPAYGIYNMWVSLFGAILCCAVMFVINWWAAVITYVIELFLYIYVTYKKPDVNWGSSTQALSYVSALDNALELTTVEDHVKNFRPQCIVLTGGPMTRPALLDITHAFTKNSGLCICCEVFVGPRKLCVKEMNSGMAKKQAWLIKNKIKAFYAAVAADCFRDGVRSLLQASGLGRMKPNTLVIGYKKNWRKAPLSELENYVGIIHDAFDFEIGVVIVRISQGFDISPVLQVQDELEKLEQERLALEAAIKDNECEEGKGGIRGLFKKAGKLNITKPAPKKDGNISSIQSMHVGEFNQKLVEASAQFKKKQGKGTIDVWWLFDDGGLTLLIPYILTLRKKWKDCKLRIYVGGKITRIEEEKISMASLLSKFRIKFADIHIIGDINIKPNKESWKVFEEMIEPYRLHESHKDLTTAEKLKRESPWKITDAELEAVKEKSYRQVRLNELLQEHSRAANLIVLSLPVARKGSISDLLYMAWLEILTKNLPPVLLVRGNHKNVLTFYS
B2: NKCC2: kifunensine 25 µM, 6 h (protein)
parent chain: B1 parent chain

Assays:
[1] = immunoblot of total NKCC2 ± ManIA co-expression, HEK cells; details: glycan lost; control: WT NKCC2
[2] = immunoblot of NKCC2 ± ManIA co-expression, OKP cells; details: glycan changed form; control: untreated cells

| Protein | other: ManIA-induced down-regulation of NKCC2 protein [1] | other: ManIA-induced down-regulation of NKCC2 protein [2] |
| --- | --- | --- |
| B1 | decreases |  |
| B2 |  | decreases |
